According to patent publication US12708677B2, “Contrast agents, methods for preparing contrast agents, and methods of imaging” (Georgia State University Research Foundation, Inc., priority 2008, dated 2026):
“And” between values parts separate entries of the source, which are not always exact repeats. Equal values may be shown once.

Tests used:
[1] = Ca^2+ binding constant, dye competition / Tb^3+ FRET competition
Excerpt: (§1) Since metal selectivity for Gd^3+ over other physiological metal ions is for minimizing the toxicity of the agents,^39, 40 we measured metal binding constants using dye-competition assays with various chelate-metal buffer systems (Table 1). Low limit metal binding affinities of the proteins were also estimated based on Tb^3+-sensitized FRET and competition assays. […] This is considered for in vivo applications of the contrast agent as the phosphate concentration in serum is maintained at ~1.3 mM.^6, 9 The stability of a contrast agent in blood circulation is another factor for in vivo applications. We characterized the stability by incubating Gd-CA1.CD2 with 75% human serum at 37° C. for 3 and 6 hours.
Metal binding affinity for Ca^2+ and Zn^2+ were determined using similar competition methods and specific dyes with proper Kd values.

[2] = Mg^2+ binding constant, competition assays
Excerpt: as §1

[3] = Water coordination number by terbium life time luminescence; assay type: physicochemical
Description: Measurement of Water Coordination Number by Terbium Life Time Luminescence. The number of water ligands coordinated to Gd^3+-CA1.CD2 complex was determined by measuring Tb^3+ luminescence decay in H2O or D2O. Tb^3+ excited state lifetime was measured using a fluorescence spectrophotometer (Photon Technology International, Inc.) with a 10 mm path length quartz cell at 22° ° C. Following excitation at 265 nm with a XenoFlash (Photon Technology International, Inc.), Tb^3+ emission was monitored at 545 nm in a time series experiment in both H2O and D2O systems. Luminescence decay lifetime was obtained by fitting the acquired data with a mono-exponential decay function. H2O in CA1.CD2 solution was replaced with D2O by lypholization and re-dissolved in D2O at least three times. A standard curve correlating the Δkobs with water number under our experimental conditions was established by using well-characterized chelators, such as EDTA (q=3), DTPA (q=1), NTA (q=5), and Aquo Tb^3+ (q=9) solution with R^2=0.997.^26,27 Water number coordinated to Tb^3+-CA1.CD2 complex was then obtained by fitting the acquired Δkobs value to the standard curve.
The numbers of water ligands coordinated to Gd^3+-CA1.CD2 and variants complex were determined by measuring Tb^3+ luminescence decay in H2O or D2O (Yang et al., 2008). Tb^3+ excited state lifetime was measured using a fluorescence spectrophotometer (Photon Technology International, Inc.) with a 10 mm path length quartz cell at 22° C. Following excitation at 265 nm with a XenoFlash (Photon Technology International, Inc.), Tb^3+ emission was monitored at 545 nm in a time series experiment in both H2O and D2O systems. Luminescence decay lifetime was obtained by fitting the acquired data with a mono-exponential decay function. H2O in CA1.CD2 solution was replaced with D2O by lypholization and re-dissolved in D2O at least three times. A standard curve correlating the Δkobs with water number under our experimental conditions was established by using well-characterized chelators, such as EDTA (q=3). DTPA (q=1), NTA (q=5), and Aquo Tb^3+ (q=9) solation with R^2=0.997.^26, 27 Water number coordinated to Tb^+-CA1.CD2 complex was then obtained by fitting the acquired Δkobs value to the standard curve.

[4] = Dynamic NMR, rotational correlation time and S^2 order; assay type: physicochemical
Description: Therefore, the measured correlation time of the protein directly reflects the τR of the metal binding site. In contrast, the flexible metal binding loop in CA9.CD2 has an S^2 order value of 0.3-0.4, which is very different from CA1.CD2 with an S^2 value very close to that of the backbone of the protein.
Pulse field diffusion NMR was applied to measure the hydrodynamic radii of the protein (Lee et al., BBA 2003) with Protein samples CA1.CD2 and its variants of 0.2 mM in buffer, Lysozme and diaxone were used as an external and internal reference for calibration. The correlation size of the protein was measured using TauC pulse sequence developed by the Prestegard lab at UGA using ^15N labeled protein.

[5] = system: AU565 cells; assay: Cell binding by immuno-fluorescence staining; assay type: cell-based; details: 37 and 4° C.
Excerpt: (§2) We first examined whether the designed CA1.HER2/Affi can target cancer cells by cell binding analyses. We used two cancer cell lines for the binding analyses. AU565 is derived from breast carcinoma. EMT6 is a mouse mammary tumor cell line. AU565 cells express very high levels of HER2. The EMT is regarded as a HER2 negative cell line. Binding of the Gd-CA1.HER2/Affi to the cancer cells was first analyzed by immuno-fluorescence staining using a polyclonal antibody against PEGylated parental protein CA1.CD2 (PAbPGCA1).

[6] = system: EMT6 cells; assay: Cell binding by immuno-fluorescence staining; assay type: cell-based, mouse
Excerpt: as §2

[7] = In vitro r1 and r2 proton relaxivity; assay type: physicochemical
Description: Determination of r1 and r2 Relaxivity Values, Relaxation times, T1 and T2, were determined at 1.5, 3, 9.4 Tesla using a Siemens whole-body MR system (1.5, 3T) or a Bruker MRI scanner (9.4T). T1 was determined using inversion recovery and T2 using a multi-echo Carr-Purcell-Meiboom-Gill (CPMG) sequence. The contrast agent samples (200 μl) with different concentrations were placed in eppendorf tubes. The tubes were placed on a tube rack, which was placed in MRI scanners for the measurement of relaxation times r1 and r2 were calculated based on r1(mM^−1 S^−1)=(1/T1s−1/T1c)/C and r2(mM^−1 S^−1)=(1/T2s−1/T2c)/C, where T1s and T2s are relaxation times with contrast agent and T1c and T2c are relaxation times without contrast agent. C is the concentration of contrast agent in mM (the measured Gd^3+ concentrations by ICP-MS). […]

[8] = Serum stability in human serum at 37° C., SDS-PAGE; assay type: in vitro ADME; details: 75% human serum, 37° C., 6 hours
Description: Serum stability. […] The degradation of the protein (disappearance of 12 kDa protein band) was analyzed by SDS-PAGE and visualized by coomassie blue staining. In parallel, the degradation of the protein was also analyzed by immunoblot using antibodies OX54 or PabCD2. The identities of the 12 kDa bands as CA1.CD2 were always verified by immunobloting using antibody PabCD2.
[…] The degradation of the protein (disappearance of 12 kDa protein band) was analyzed by SDS-PAGE and visualized by coomassie blue staining for protein and idiol staining for PEG moiety. In parallel, the degradation of the protein was also analyzed by immunoblot using antibodies OX54 or PabCD2. The identities of CA1.CD2 and pegylated variants were verified by immunoblotting using antibody PabCD2.and idiol staining.

Molecule | Metal binding constant (Log Ka) Ca^2+ [1] | disassociation constant (Kd) for Ca^2+ [1] | Log (KGd/KCa) ([1]; metal selectivity) | Metal binding constant (Log Ka) Mg^2+ [2] | disassociation constant (Kd) for Mg^2+ [2] | Log (KGd/KMg) ([2]; metal selectivity) | hydration number (water number in the coordination shell) [3] | Tb^3+ life time ([3]; in D2O) | Tb^3+ life time ([3]; protein complex in H2O) | overall correlation time ([4]; absence of bound metal ions) | overall correlation time ([4]; presence of bound metal ions) | binding to AU565 cells [5] | binding to EMT6 cells [6] | r1 relative to Gd-DTPA ([7]; 1.5T) | r1 ([7]; B0 1.5 T) | r1 ([7]; B0 1.5 T, listed as CA1) | r1 ([7]; B0 3 T) | r1 ([7]; B0 9.4 T) | stability of protein-Gd complex in serum [8]
CA1.CD2: designed Gd^3+-binding protein, domain 1 of rat CD2 with ligand residues Glu15, Glu56, Asp58, Asp62, Asp64 (protein) RDSGTVWGALGHGIELNIPNFQMTDDIDEVRWERGSTLVAEFKRKMKPFLKSGAFEIDANGDLDIKNLTRDDSGTYNVTVYSTNGTRILNKALDLRILE | <2.22 | ≥ 6 mM | >9.84 | <2.0 | > 10 mM | >10.06 | 2.1 and 2 | 1,679 μs | 859 μs | 9.20 ns | 9.08 ns | did not bind to either of the tested cultured cells | did not bind to either of the tested cultured cells | – | – | – | – | – | –
Gd-CA1.CD2: CA1.CD2 in complex with Gd^3+ (protein) RDSGTVWGALGHGIELNIPNFQMTDDIDEVRWERGSTLVAEFKRKMKPFLKSGAFEIDANGDLDIKNLTRDDSGTYNVTVYSTNGTRILNKALDLRILE | – | – | – | – | – | – | – | – | – | – | – | – | – | about 20 fold | up to 117 mM^−1 s^−1 | 117 mM⁻¹ s⁻¹ | 48 mM⁻¹ s⁻¹ | 6 mM⁻¹ s⁻¹ | remained intact
